Results reported in article PMC2761088.

Molecular target: human recombinant Akt1-GST (not treated with H2O2) (human) (UniProt P31749)
UniProt P31749, sequence (P31749 whole entry): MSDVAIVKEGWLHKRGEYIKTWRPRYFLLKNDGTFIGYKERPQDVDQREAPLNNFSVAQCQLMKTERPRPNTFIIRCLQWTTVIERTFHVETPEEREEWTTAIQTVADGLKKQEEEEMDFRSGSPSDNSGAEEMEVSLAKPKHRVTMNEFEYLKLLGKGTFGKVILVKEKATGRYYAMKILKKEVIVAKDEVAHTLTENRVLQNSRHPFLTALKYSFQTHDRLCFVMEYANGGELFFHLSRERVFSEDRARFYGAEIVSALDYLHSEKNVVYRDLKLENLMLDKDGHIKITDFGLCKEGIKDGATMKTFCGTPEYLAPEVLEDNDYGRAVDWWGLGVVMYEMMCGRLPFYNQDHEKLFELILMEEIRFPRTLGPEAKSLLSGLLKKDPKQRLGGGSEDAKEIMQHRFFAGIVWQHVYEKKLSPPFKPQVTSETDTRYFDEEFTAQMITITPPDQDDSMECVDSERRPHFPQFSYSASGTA

Work on “PDK1 (PI3K-dependent kinase 1) of NIH/3T3 mitochondrial fractions (from UniProt Q9Z2A0 1-559) (enzyme)” yielded an Akt1 activity (formation of P-GSK-3 α/β in vitro) of Akt1 immunoprecipitated from mitochondrial extracts of NIH cells treated with low to high H2O2; decreased to 45% of control at high H2O2 of 150%.
